Tests used:
[1] = target: Deinococcus radiodurans LuxS (Deinococcus radiodurans); assay: X-ray crystal structure, P21 form, homodimer interface
[2] = target: Deinococcus radiodurans LuxS (Deinococcus radiodurans); assay: X-ray crystal structure, C2 form, crystallographic dimer interface
[3] = target: Haemophilus influenzae LuxS (Haemophilus influenzae); assay: X-ray crystal structure, homodimer interface
[4] = target: Helicobacter pylori LuxS (Helicobacter pylori); assay: X-ray crystal structure, homodimer interface

Substance: Deinococcus radiodurans LuxS (enzyme)
- surface area buried through this interaction [1]: 3930 Å^2
- surface area buried through this interaction [2]: 3200 Å^2

Substance: Haemophilus influenzae LuxS (enzyme)
- surface area buried through this interaction [3]: 4160 Å^2

Substance: Helicobacter pylori LuxS (enzyme)
- surface area buried through this interaction [4]: 4180 Å^2
